The term Kd denotes the constant that tells how readily two partners part at equilibrium.

These results are taken from US20190359693A1.

Assay [1] concerns the target hemagglutinin (HA) of influenza A/Vietnam/1194/04 (H5N1) (influenza A virus A/Vietnam/1194/04 (H5N1)). Put plainly: cell-based or functional assay.
The target of assay [2] is hemagglutinin (HA) of influenza A/Brisbane/10/07 (H3N2) (influenza A virus A/Brisbane/10/07 (H3N2)). Put plainly: cell-based or functional assay.
The target of assay [3] is hemagglutinin (HA) of influenza B/Harbin/7/94 (Yamagata lineage) (influenza B virus B/Harbin/7/94). The assay can be described thus: cell-based or functional assay.
Assay [4] addresses hemagglutinin (HA) of influenza A/New Caledonia/20/99 (H1N1) (influenza A virus A/New Caledonia/20/99 (H1N1)). Put plainly: cell-based or functional assay.
The target in assay [5] is hemagglutinin (HA) of influenza B/Brisbane/60/08 (Victoria lineage) (influenza B virus B/Brisbane/60/08). Put plainly: cell-based or functional assay.
In assay [6] the target is HA of H5N1 A/Vietnam/1194/04 (influenza A virus). The assay can be described thus: cell-based or functional assay.
Assay [7] has as its target HA of H1N1 A/Puerto Rico/8/34-MA (influenza A virus). Put plainly: cell-based or functional assay.
Assay [8] concerns the target HA of H3N2 A/Brisbane/10/2007 (influenza A virus). The assay can be described thus: cell-based or functional assay.
The target of assay [9] is HA of H1N1 A/New Caledonia/20/1999 (influenza A virus). The assay can be described thus: cell-based or functional assay.
In assay [10] the target is HA of H1N1 A/Brisbane/59/07 (influenza A virus). The assay can be described thus: cell-based or functional assay.
Assay [11] addresses HA of H3N2 A/HK/1/68-MA (influenza A virus). Put plainly: cell-based or functional assay.
In assay [12] the target is HA of H7N3 A/NIBRG/60 (A/mallard/NL/12/00) (influenza A virus). Put plainly: cell-based or functional assay.
Assay [13] deals with hemagglutinin (HA) of influenza virus B/Florida/04/06 (Yamagata) (influenza B virus). The assay can be described thus: cell-based or functional assay.
Assay [14] concerns the target hemagglutinin (HA) of influenza virus H6N1 A/Eurasian Wigeon/MPG1884/09 (influenza A virus). The assay can be described thus: cell-based or functional assay.
Assay [15] concerns the target hemagglutinin (HA) of influenza virus H3N2 A/Aichi/2/68 (influenza A virus) (UniProt P03437). Put plainly: cell-based or functional assay.
The target in assay [16] is hemagglutinin (HA) of influenza virus B/Malaysia/2506/04 (Victoria) (influenza B virus). Put plainly: cell-based or functional assay.
The target in assay [17] is hemagglutinin (HA) of influenza virus H3N2 A/Fukui/45/04 (influenza A virus). Put plainly: cell-based or functional assay.
For assay [18], the target named is hemagglutinin (HA) of influenza virus H1N1 A/Mississippi/03/01 274H (influenza A virus). Put plainly: cell-based or functional assay.
Assay [19] concerns the target hemagglutinin (HA) of influenza virus H3N2 A/Johannesburg/33/94 (influenza A virus). The assay can be described thus: cell-based or functional assay.
Assay [20] addresses hemagglutinin (HA) of influenza virus H5N1 A/Vietnam/1194/04 (influenza A virus). The assay can be described thus: cell-based or functional assay.
Assay [21] addresses hemagglutinin (HA) of influenza virus B/Brisbane/60/08 (Victoria) (influenza B virus). The assay can be described thus: cell-based or functional assay.
The target in assay [22] is hemagglutinin (HA) of influenza virus H3N2 A/Wisconsin/67/05 (influenza A virus). The assay can be described thus: cell-based or functional assay.
For assay [23], the target named is hemagglutinin (HA) of influenza virus H4 A/WF/HK/MPA892/06 (influenza A virus). Put plainly: cell-based or functional assay.
The target of assay [24] is hemagglutinin (HA) of influenza virus H5N1 A/PR8 H5N1 HK97 (influenza A virus). Put plainly: cell-based or functional assay.
The target of assay [25] is hemagglutinin (HA) of influenza virus H3N2 A/HK/1/68-MA (influenza A virus). The assay can be described thus: cell-based or functional assay.
Assay [26] addresses hemagglutinin (HA) of influenza virus H1N1 A/New Caledonia/20/99 (influenza A virus). Put plainly: cell-based or functional assay.
Assay [27] has as its target hemagglutinin (HA) of influenza virus H3N2 A/Brisbane/10/07 (influenza A virus). The assay can be described thus: cell-based or functional assay.
Assay [28] addresses hemagglutinin (HA) of influenza virus H1N1 A/Brisbane/59/07 (influenza A virus). The assay can be described thus: cell-based or functional assay.
For assay [29], the target named is hemagglutinin (HA) of influenza virus B/Massachusetts/02/12 (Yamagata) (influenza B virus). Put plainly: cell-based or functional assay.
The target in assay [30] is hemagglutinin (HA) of influenza virus H9N2 A/HK/466419/09 (influenza A virus). The assay can be described thus: cell-based or functional assay.
The target of assay [31] is hemagglutinin (HA) of influenza virus H7N9 A/Shanghai/2/13 (influenza A virus). Put plainly: cell-based or functional assay.
Assay [32] deals with hemagglutinin (HA) of influenza virus H3N2 A/Hiroshima/52/05 (influenza A virus). Put plainly: cell-based or functional assay.
Assay [33] concerns the target hemagglutinin (HA) of influenza virus H8N4 A/Eurasian Wigeon/MPH571/08 (influenza A virus). The assay can be described thus: cell-based or functional assay.
The target of assay [34] is hemagglutinin (HA) of influenza virus H3N2 A/Perth/16/09 (influenza A virus). The assay can be described thus: cell-based or functional assay.
Assay [35] addresses hemagglutinin (HA) of influenza virus B/Lee/40 (Old) (influenza B virus) (UniProt P03460). The assay can be described thus: cell-based or functional assay.
Assay [36] concerns the target hemagglutinin (HA) of influenza virus H7N3 A/NIBRG/60 (A/mallard/Netherlands/12/00) (influenza A virus). The assay can be described thus: cell-based or functional assay.
The target in assay [37] is hemagglutinin (HA) of influenza virus H1N1 A/Christchurch/16/10 (influenza A virus). The assay can be described thus: cell-based or functional assay.
The target of assay [38] is hemagglutinin (HA) of influenza virus H1N1 A/Solomon Islands/3/2006 (IVR 145) (influenza A virus). The assay can be described thus: cell-based or functional assay.
In assay [39] the target is hemagglutinin (HA) of influenza virus H1N1 A/California/07/09 (influenza A virus). The assay can be described thus: cell-based or functional assay.
For assay [40], the target named is hemagglutinin (HA) of influenza virus H3N2 A/Panama/2007/99 (influenza A virus). Put plainly: cell-based or functional assay.
The target of assay [41] is hemagglutinin (HA) of influenza virus H1N1 A/WSN/33 (influenza A virus) (UniProt P03454). The assay can be described thus: cell-based or functional assay.
The target of assay [42] is hemagglutinin (HA) of influenza virus B/Harbin/7/94 (Yamagata) (influenza B virus). Put plainly: cell-based or functional assay.
The target in assay [43] is hemagglutinin (HA) of influenza virus H3N2 A/Victoria/210/09 (influenza A virus). The assay can be described thus: cell-based or functional assay.
In assay [44] the target is hemagglutinin (HA) of influenza virus H11N9 A/Northern Pintail/MPC2085/07 (influenza A virus). The assay can be described thus: cell-based or functional assay.
For assay [45], the target named is hemagglutinin (HA) of influenza virus H2N2 A/Guiyang/1/57 (influenza A virus). The assay can be described thus: cell-based or functional assay.
Assay [46] addresses hemagglutinin (HA) of influenza virus H10N7 A/Chick/Germany/N/49 (influenza A virus). Put plainly: cell-based or functional assay.
Assay [47] addresses hemagglutinin (HA) of influenza virus H7N9 A/Anhui/1/13 (influenza A virus). Put plainly: cell-based or functional assay.
For assay [48], the target named is hemagglutinin (HA) of influenza virus H14N5 A/Mallard/Astrakhan/263/1982 (influenza A virus). The assay can be described thus: cell-based or functional assay.
Assay [49] concerns the target hemagglutinin (HA) of influenza virus H1N1 A/Puerto Rico/8/34-MA (influenza A virus). The assay can be described thus: cell-based or functional assay.
Assay [50] addresses hemagglutinin (HA) of influenza virus H7N7 A/PR8 H7N7-NY (influenza A virus). Put plainly: cell-based or functional assay.
Assay [51] concerns the target HA of B/Brisbane/60/2008 (Victoria) (influenza B virus). The assay can be described thus: cell-based or functional assay.
Assay [52] concerns the target HA of B/Lee/40 (influenza B virus) (UniProt P03460). Put plainly: cell-based or functional assay.
In assay [53] the target is HA of B/Harbin/7/94 (Yamagata) (influenza B virus). Put plainly: cell-based or functional assay.
Assay [54] concerns the target HA of B/Florida/04/2006 (Yamagata) (influenza B virus). The assay can be described thus: cell-based or functional assay.
Assay [55] addresses HA of B/Malaysia/2506/04 (Victoria) (influenza B virus). The assay can be described thus: cell-based or functional assay.
The target of assay [56] is HA of H3N2 A/Brisbane/10/2007 (influenza A virus). Put plainly: BLI steady state.
Assay [57] has as its target HA of H7N3 A/NIBRG/60 (A/mallard/NL/12/00) (influenza A virus). The assay can be described thus: BLI steady state.

B1: FM1W3 (Fc fusion)
chain: TIFGIRVNTMG
Consider B1, for which the Average neutralization titers in assay [1] was 10 nM; in [2], 16 nM; in [3] it was 8 nM; in assay [4] it was 6 nM; in [5], 16 nM.

B2: SD1025 (VHH)
VHH: EVQLVESGGGLVQAGGSLRLSCAASGRTYAMAWFRQAPGKEREFVAHINALGTRTYYSDSVQGRFTISRDNAKNTEYLQMNSLKPEDTAVYYCAAGGQWRAAPVADAAQYDFWGQGTQVTVSS
For the molecule B2, the VNA titer in assay [6], in [7], in assay [8], in [9], in assay [10] and in assay [11] was above 1000 nM in each case. The VNA titer in assay [12] stood at 52 nM.

B3: MD2501 (bispecific antibody)
chain: EVQLVESGGGLVQPGGSLRLSCAVSISIFDIYAMDWYRQAPGKQRDLVATSFRDGSTNYADSVKGRFTISRDNAKNTLYLQMNSLKPEDTAVYLCHVSLYRDPLGVAGGMGVYWGKGALVTVSSGGGGSGGGGSEVQLVESGGGLVQPGGSLRLSCAVSISIFDIYAMDWYRQAPGKQRDLVATSFRDGSTNYADSVKGRFTISRDNAKNTLYLQMNSLKPEDTAVYLCHVSLYRDPLGVAGGMGVYWGKGALVTVSSGGGGSGGGGSEVQLVESGGGLVQAGGSLKLSCAASGRTYAMGWFRQAPGKEREFVAHINALGTRTYYSDSVKGRFTISRDNAKNTEYLEMNNLKPEDTAVYYCTAQGQWRAAPVAVAAEYEFWGQGTQVTVSSGGGGSGGGGSEVQLVESGGGLVQPGGSLRLSCAATGFTLENKAIGWFRQTPGSEREGVLCISKSGSWTYYTDSMRGRFTISRDNAENTVYLQMDSLKPEDTAVYYCATTTAGGGLCWDGTTFSRLASSWGQGTQVTVSSGGGGSGGGGSEVQLVESGGGLVQPGGSLKLSCAASGFTFSTSWMYWLRQAPGKGLEWVSVINTDGGTYYADSVKDRFTISRDNAKDTLYLQMSSLKSEDTAVYYCAKDWGGPEPTRGQGTQVTVSS
Consider B3, for which the average neutralization titer in assay [13] was found to be 8.3 nM; in assay [14], 16 nM; in assay [15], 12.6 nM; in assay [16], 8.8 nM; in assay [17], 21.2 nM; in assay [18] it was 4.9 nM. In addition, the average neutralization titer in assay [19] is 11.6 nM; in assay [20] it was 6.5 nM; in [21], 5 nM; in assay [22], 14.1 nM; in [23] it was 3.9 nM; in assay [24], 4.9 nM. For the same molecule, the average neutralization titer in assay [25] worked out at 19 nM; in assay [26], 4.8 nM; in [27], 9.6 nM; in [28] it was 3 nM; in assay [29], 4 nM; in [30], 16 nM. Moreover, the average neutralization titer is 36.5 nM in [31]; 6.5 nM in assay [32]; 16 nM in assay [33]; 5.7 nM in [34]; 14.6 nM in assay [35]; 13.8 nM in assay [36]. Besides, the average neutralization titer in [37] worked out at 1.3 nM; in assay [38] it was 3.9 nM; in [39], 3 nM; in assay [40], 18.1 nM; in assay [41] it was 2.9 nM; in [42] it was 4.3 nM. Also, the average neutralization titer turned out to be 5.8 nM in assay [43]; 16 nM in assay [44]; 19.9 nM in assay [45]; 14.9 nM in assay [46]; 73.8 nM in assay [47]; 15.6 nM in assay [48]. For the same molecule, the average neutralization titer in [49] was 8.5 nM; in assay [50], 14 nM.

B4: SD2086 (VHH)
VHH: EVQLVESGGGLVQAGGSLRLSCATSGQTFSSYAMGWFRQAPGKEREFVAAISWNGGSTYYADSVKGRFTISRESPENLVYLQMNSLKPEDTAVYYCAARGAYYTGSYYLGSTYDYWGQGTQVTVSS
For the molecule B4, the VNA titer turned out to be 934 nM in assay [51]; 273 nM in [52]; 964 nM in [53]; 815 nM in [54]; 546 nM in [55].

B5: SD1048 (VHH)
VHH: EVQLVESGGGVVQPGGSLRLSCVASGRTSSMYSIGWFRQAPGKEREFVAVIGWYSGRTFYTDSMKGRFTISRDNARNTVYLQMNSLKPEDTAVYYCAAANGPLRLSNQADYWGQGTQVTVSS
Take B5: the Kd in [56] and in assay [57] was 3 nM in each case. Besides, the VNA titer is above 1000 nM in assay [51]; above 1000 nM in assay [6]; 19.5 nM in [8]; above 1000 nM in assay [54]; above 1000 nM in assay [9]; above 1000 nM in [10]. In addition, in assay [12], the VNA titer amounted to 20.6 nM.
